Assay results published in PMC8497620, “Structure and inhibition of Cryptococcus neoformans sterylglucosidase to develop antifungal agents” (Nature Communications, 2021).
pIC50: −log10 of the molar value.

molecular target: T1, C. neoformans Sgl1 (Cryptococcus neoformans var. grubii, UniProt J9W473); test: Sgl1 inhibition with res-glp substrate (HTS, single-compound dose-response); assay type: biochemical; details: res-glp as substrate (100 µM), primary screen; read-out: IC50 against Sgl1
Description: Resorufin-3β-D-glucopyranoside (res-glp, Sigma-Aldrich) enzyme kinetic assays were performed according to methods described by Urban et al.[16] with modifications. Reaction buffer contained 50 mM citric acid, 176 mM K2HPO4, pH 6, 0.01% Tween-20, and 10 mM sodium taurocholate. The reactions were carried out in black 96-well plates using 20 ng of enzyme with 100 μM res-glp substrate. In all, 10 μL/well of res-glp substrate was added to each well and the reaction was initiated by adding 20 μL enzyme (20 ng). After incubation at 37 °C for 30–40 min, the fluorescence was read at an excitation of 570 (±10) nm and an emission of 610 (±10) nm on a VersaMax™ Microplate Reader from Molecular Devices. A standard curve was prepared with serial dilutions of the free fluorophore, resorufin, in the same volume of assay buffer.
A ChemBridge DIVERSet-CL library (San Diego, CA) containing 50,000 compounds was screened to identify small molecules that inhibit C. neoformans Sgl1. The library was prepared in a 96-well plate format containing a cocktail of 10 compounds per well at 1 mM each in 100% DMSO. The cocktail plates were first diluted to 100 μM each (1:10 dilution in Dulbecco’s phosphate-buffered saline, DPBS) resulting in 10% DMSO. In order to screen the compound cocktails at […] in 1% DMSO in a final reaction volume of 30 μL an aliquot of 3 μL was added to 17 μL of buffer containing 20 ng of enzyme and the reaction was started adding 10 μL of 100 μM res-glp. A negative control without enzyme and positive controls with and without DMSO were prepared. The plates were incubated at 37 °C for 40 min.
The Z′-factor was used for the assessment of the efficiency of the HTS assay for each individual plate. Values greater than 0.5 has been considered as an indicator of an excellent screening assay quality.

T1 sequence (J9W473 entry or part of it): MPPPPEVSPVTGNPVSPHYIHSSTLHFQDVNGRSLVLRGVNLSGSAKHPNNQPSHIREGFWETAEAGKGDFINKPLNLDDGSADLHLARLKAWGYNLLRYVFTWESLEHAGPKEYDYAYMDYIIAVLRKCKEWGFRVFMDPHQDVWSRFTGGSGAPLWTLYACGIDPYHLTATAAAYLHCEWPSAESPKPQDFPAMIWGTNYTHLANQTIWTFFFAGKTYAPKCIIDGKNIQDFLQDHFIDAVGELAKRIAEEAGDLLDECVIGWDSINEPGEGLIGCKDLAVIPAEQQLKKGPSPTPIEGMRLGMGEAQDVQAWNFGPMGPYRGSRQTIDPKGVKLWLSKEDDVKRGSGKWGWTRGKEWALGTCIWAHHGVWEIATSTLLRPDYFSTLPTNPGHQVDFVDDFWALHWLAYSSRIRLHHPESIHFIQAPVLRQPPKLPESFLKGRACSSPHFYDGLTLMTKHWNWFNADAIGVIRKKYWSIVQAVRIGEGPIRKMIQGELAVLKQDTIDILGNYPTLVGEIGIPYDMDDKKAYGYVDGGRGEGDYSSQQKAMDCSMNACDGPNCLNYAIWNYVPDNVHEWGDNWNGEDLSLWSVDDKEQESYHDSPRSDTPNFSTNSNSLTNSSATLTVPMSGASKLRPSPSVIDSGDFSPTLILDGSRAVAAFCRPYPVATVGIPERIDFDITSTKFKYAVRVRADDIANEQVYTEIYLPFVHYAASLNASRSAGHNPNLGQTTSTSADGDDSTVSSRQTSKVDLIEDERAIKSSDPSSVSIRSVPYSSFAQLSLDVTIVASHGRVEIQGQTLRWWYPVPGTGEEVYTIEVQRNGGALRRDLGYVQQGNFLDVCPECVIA

| pIC50 | Compound |
| --- | --- |
| 5.40 | O=C(c1ccc(-c2ccccc2)c(F)c1)C1CCCN(C2CCSCC2)C1 (stereo not shown) [Hit 2] |
| 5.40 | CCC(Sc1nc2ccccc2o1)C(=O)N1CCc2[nH]cnc2C1 (stereo not shown) [Hit 8] |
| 5.40 | CN(C)CCN(Cc1ccsc1)Cc1ccc2nonc2c1 [Hit 11] |
| 5.70 | COc1cc(CNCc2cc(C)cc3c(C)c(C)[nH]c23)cc2c1OCO2 [Hit 12] |

| Compound | pIC50 |
| --- | --- |
| CC(C)Oc1cccc(C(=O)C2CCCN(C3CCSCC3)C2)c1 (stereo not shown) [Hit 3] | 5.40 |
| Cc1cc(NCc2ccc3[nH]c(C)c(C)c3c2)nc(N)n1 [Hit 4] | 5.40 |

molecular target: T1, C. neoformans Sgl1; test: H/D exchange mass spectrometry mapping of disordered regions; details: H/D exchange MS of C. neoformans Sgl1; per peptide (amino acids Start-End, Sequence); Fig S2a
Description: HDX-MS reactions were performed in a similar manner as is outlined in previous publications. HDX reactions were conducted in a final reaction volume of 50 µL with a final Sgl1 concentration of 0.6 µM (30 pmol). Exchange was carried out in triplicate for a single time point (3 s at 4 °C). Hydrogen deuterium exchange was initiated by the addition of 48 µL of D2O buffer (100 mM NaCl (20 mM pH 6.0 Bis-Tris), 90.5% D2O (V/V) to 1 µL of protein and 1 µL of H2O. Exchange was terminated by the addition of ice-cold acidic quench buffer, resulting in a final concentration of 0.6 M guanidine-HCl and 0.9% FA post quench. Samples were immediately frozen in liquid nitrogen and stored at −80 °C. Fully deuterated samples were generated by first denaturing the protein in 2 M guanidine for 5 min at 20 °C. Following denaturing, 48 µL of D2O buffer was added to the denatured protein and allowed to incubate for 5 min at 20 °C before quenching. Samples were flash frozen and stored at −80 °C until injection onto the ultra-performance liquid chromatography (UPLC) system for proteolytic cleavage, peptide separation, and injection onto a QTOF for mass analysis.
Protein sample was rapidly thawed and injected onto a UPLC system kept in a cold box at 2 °C. The protein was run over two immobilized pepsin columns (Applied Biosystems; Porosyme 2-3131-00) and the peptides were collected onto a VanGuard Precolumn trap (Waters). The trap was eluted in line with an ACQUITY 1.7 μm particle, 100 × 1 mm^2 C18 UPLC column (Waters), using a gradient of 5–36% B (Buffer A 0.1% formic acid, Buffer B 100% acetonitrile) over 16 min. MS experiments were performed on an Impact QTOF (Bruker) and peptide identification was done by running tandem MS (MS/MS) experiments run in data-dependent acquisition mode. The resulting MS/MS dataset was analyzed using PEAKS7 (PEAKS) and a false discovery rate was set at 1% using a database of purified proteins and known contaminants. HDExaminer Software (Sierra Analytics) was used to automatically calculate the level of deuterium incorporation into each peptide. All peptides were manually inspected for correct charge state and presence of overlapping peptides. Deuteration levels were calculated using the centroid of the experimental isotope clusters, with correction for back exchange generated using the fully deuterated sample. The mass spectrometry proteomics data have been deposited to the ProteomeXchange Consortium via the PRIDE partner repository[31] with the dataset identifier PXD024981.

| Compound | % Deuterium incorporation, Average [%] |
| --- | --- |
| RAIKSSDPSSVSIRSVPYSSF | 104.9 |
| RFTGGSGAPLWTL | 6.3 |
| RGVNLSGSAKHPNNQPSH | 44.0 |
| RGVNLSGSAKHPNNQPSHIREGF | 44.7 |
| RIRLHHPESIHF | 6.5 |
| RRDLGYV | 59.6 |
| RRDLGYVQQGN | 98.6 |
| RRDLGYVQQGNF | 98.0 |
| RSVPYSSF | 93.7 |
| RVFMDPHQDV | 5.4 |
| RVFMDPHQDVW | 3.4 |
| RVFMDPHQDVWSRF | 4.4 |
| RWWYPVPGTG | 40.0 |
| RWWYPVPGTGE | 36.9 |
| RWWYPVPGTGEEV | 29.8 |
| SADGDDSTVSSRQTSKVDL | 103.2 |
| SINEPGEGL | 13.9 |
| SIRSVPYSSF | 96.6 |
| SLEHAGPKEYD | 7.5 |
| SLEHAGPKEYDYA | 6.0 |
| SRFTGGSGAPLWTL | 5.6 |
| SRSAGHNPNLGQTTSTSADGDD | 102.7 |
| SRSAGHNPNLGQTTSTSADGDDSTVSSRQTSKVDL | 101.7 |
| SSRIRLHHPESIHF | 4.1 |
| STLPTNPGHQVD | 53.3 |

| Compound | % Deuterium incorporation, Average [%] |
| --- | --- |
| STLPTNPGHQVDF | 73.1 |
| STNSNSLTNSSA | 102.0 |
| STNSNSLTNSSAT | 101.5 |
| STNSNSLTNSSATL | 102.1 |
| STNSNSLTNSSATLTVPMSG | 99.8 |
| STNSNSLTNSSATLTVPMSGASKLRPSPSV | 91.4 |
| STNSNSLTNSSATLTVPMSGASKLRPSPSVIDSGDFSPTL | 72.8 |
| STVSSRQTSKVDL | 98.6 |
| SYHDSPRSDTPNF | 96.9 |
| TGGSGAPLWTL | 5.6 |
| TIDPKGVKL | 7.9 |
| TIEVQRNGGAL | 26.9 |
| TLMTKHWNWFNA | 34.8 |
| TVGIPERIDF | 7.3 |
| TVPMSGASKLRPSPSV | 90.4 |
| TVPMSGASKLRPSPSVIDSGDFSPTL | 57.8 |
| TWESLEHAGPKEYD | 5.0 |
| VGEIGIPYDMD | 24.9 |
| VGEIGIPYDMDDKKAYGYVDGGRGEGDY | 21.5 |
| VGEIGIPYDMDDKKAYGYVDGGRGEGDYSSQQKAMD | 19.4 |
| VGELAKRIAEEAGDL | 5.8 |
| VGIPERIDF | 8.3 |
| VIGWDSINEPGEGL | 4.0 |
| VIGWDSINEPGEGLIG | 3.9 |
| VIGWDSINEPGEGLIGCKDL | 5.1 |

| Compound | % Deuterium incorporation, Average [%] |
| --- | --- |
| VIRKKYWSIVQ | 49.5 |
| VIRKKYWSIVQA | 46.8 |
| VLKQDTIDILGNYPTL | 10.8 |
| VNLSGSAKHPNNQPSHIREGF | 45.8 |
| VQAWNFGPMGPYRGSRQTIDPKGVKL | 24.9 |
| VQRNGGAL | 39.7 |
| VQRNGGALRRDLG | 72.0 |
| VRIGEGPIRKMIQGEL | 21.0 |
| VSIRSVPYSSF | 97.9 |
| VTIVASHGRVEIQGQTL | 23.2 |
| VTIVASHGRVEIQGQTLRWWYPVPGTGE | 23.1 |
| VTIVASHGRVEIQGQTLRWWYPVPGTGEE | 22.0 |
| VTIVASHGRVEIQGQTLRWWYPVPGTGEEV | 18.9 |
| VTIVASHGRVEIQGQTLRWWYPVPGTGEEVY | 18.9 |
| VWEIATSTLLRPDYFS | 21.9 |
| WAHHGVWE | 1.5 |
| WAHHGVWEI | 2.5 |
| WALGTCI | 3.3 |
| WALGTCIWAHHGVWE | 1.7 |
| WALHWLAY | 4.9 |
| WESLEHAGPKEYD | 6.6 |
| WESLEHAGPKEYDY | 7.1 |
| WESLEHAGPKEYDYA | 8.8 |
| WETAEAGKGDF | 47.7 |
| WLSKEDDVKRGSGKWGWTRGKE | 27.6 |

| Compound | % Deuterium incorporation, Average [%] |
| --- | --- |
| WLSKEDDVKRGSGKWGWTRGKEWALGTCI | 17.4 |
| WLSKEDDVKRGSGKWGWTRGKEWALGTCIWAHHGVWE | 11.7 |
| WNFGPMGPYRGSRQ | 53.6 |
| WNFGPMGPYRGSRQTIDPKG | 43.4 |
| WNFGPMGPYRGSRQTIDPKGVKL | 28.6 |
| WSRFTGGSGAPLWTL | 5.9 |
| WSVDDKEQES | 70.6 |
| WSVDDKEQESY | 71.0 |
| WSVDDKEQESYHDSPRSDTPNF | 83.4 |
| YACGIDPYHLTA | 15.5 |
| YACGIDPYHLTATA | 18.2 |
| YAIWNYVPDNVHE | 15.0 |
| YAIWNYVPDNVHEWGDN | 15.4 |
| YLHCEWPSAESPKPQDF | 52.9 |
| YLHCEWPSAESPKPQDFPAM | 56.9 |
| YTHLANQ | 4.9 |
| YTHLANQTIWTF | 3.6 |
| YTHLANQTIWTFF | 3.1 |
| YVDGGRGEGD | 72.5 |
| YVDGGRGEGDY | 69.5 |
| YVDGGRGEGDYSSQ | 64.9 |
| YVDGGRGEGDYSSQQ | 65.8 |
| YVDGGRGEGDYSSQQKAMD | 51.4 |
| YVQQGNF | 102.8 |
| YVQQGNFL | 101.5 |
